{"source": "patent US20240409645A1", "binders": {"B1": {"name": "FJ1427 P035MP02D05 (VHH)", "VHH": "QVQLVESGGGLVQPGESLGLSCAASGFTFSNYAMSWVRQAPGKGLEWVSSITGAGRGTDYADSVKGRFTISRDNAKNTLYLQMNSLKPEDTAVYYCAKYSSGTYYPPTPVRGTDYRGQGTQVTVSS"}, "B2": {"name": "FJ1427_P035MP02E05 (VHH)", "VHH": "EVQLVESGGGLVQIGGSLRLSCAASGRTFSSITMAYFRQVPGKEHEWVAGINFSGTRTFYADSVKGRFLISRDDAKSTMYLQMNSLKPEDTAVYYCAASPRGFYGPGNALYDYWGQGTQVTVSS"}, "B3": {"name": "FJ1427_P035MP02F05 (VHH)", "VHH": "EVQLVESGGGLVQTGGSLRLSCAVSGSRFISDVMGWYRQVPGKQRELVADMADGGSAKYADSVKGRFSILRDSVKNTVYLQMSSLKPEDTGIYYCKAGLWIAGRHSDYWGQGTQVTVSS"}, "B4": {"name": "FJ1427 P035MP02G05 (VHH)", "VHH": "EVQLVESGGGLVQTGGSLRLSCAASGSQFINDVTGWYRQVPGKQRELVADMDDTGSTKYADSVKGRFTILRDSVKNTAYLQMSNLKPEDTGVYYCKAGLWIKGRHSDYWGQGTQVTVSS"}, "B5": {"name": "FJ1427 P035MP02H05 (VHH)", "VHH": "B3 VHH with L11S, A23V, R28H, A60G, S68T, Y79T, K86N, I92V, A102T, S118T"}, "B6": {"name": "FJ1427_P035MP02A06 (VHH)", "VHH": "QVQLQESGGGLVQAGGSLRLSCAASGGTFSSYAMGWFRQAPGKEREFVAATTRGGGRTMYAVSTEGRFTCSRDNDKNTVYLLMNSLKPKDTAVYYCAAMTSYYSGTYYPDSSDFDIWGQGTQVTVSS"}, "B7": {"name": "FJ1427_P035MP02B06 (VHH)", "VHH": "B1 VHH"}, "B8": {"name": "FJ1427 P035MP02C06 (VHH)", "VHH": "B1 VHH with V2L, E16G, G19E, A54F, K98R, G102S, V110A, T113R"}, "B9": {"name": "FJ1427_P035MP02D06 (VHH)", "VHH": "B4 VHH with T34M"}, "B10": {"name": "FJ1427_P035MP02F06 (VHH)", "VHH": "EVQLVESGGGLVQTGGSLRLSCAASGSRFISDFMGWYRQVPGKQRELVADMADGGSARYGDSVKGRFTILRESGNATAYLQMSSLKPEDTGVYYCKAGLWIAGRHFDYWGQGTQVTVSS"}, "B11": {"name": "FJ1427 P035MP02B07 (VHH)", "VHH": "EVQLVESGGGLVEAGGSLRLSCAASGRAFNNFPMGWFRQAPGKEREFVAAITWISGSTLYADSVKGRFTISRDKSKNTVYLQMSGLKPEDTALYYCAAALKTITRGQHDYTYWGQGTQVTVSS"}, "B12": {"name": "FJ1427_P035MP02C07 (VHH)", "VHH": "QVQLVESGGGLVQAGGSLRLSCAASGRTFSINTMGWFRQAPGKEREFVAAISRSGDSTVYVDSVKGRFTISRDNAKNTVYLQMNTLKPEDTAVYYCATTVAVGWTTRWSTIDFDSWGQGTQVTVSS"}, "B13": {"name": "FJ1427_P035MP02D07 (VHH)", "VHH": "EVQLVESGGGLVQAGGSLRLSCAASGRSLSTTEMGWFRQAPGKEREFVAAITWSGRGTMYAESVEGRFAVSRENAKNTVYLQMNSLKPEDTAIYYCAAARRGRAAVRSEGGYDFWGQGTQVTVSS"}, "B14": {"name": "FJ1427_P035MP02A08 (VHH)", "VHH": "EVQLVESGGGLVQAGGSLRLSCTVSGDVFVRYTMAWFRQAPGKEREFVATVTDSGRTTEYVDSVKGRFTVSRDNAKNTVYLQMNNLKPEDTAVYYCAANTDYFRIRSLDANTWGQGTQVTVSS"}, "B15": {"name": "FJ1427 P035MP02C08 (VHH)", "VHH": "EVQLVESGGGLVQAGGSLRLSCAASGSTFSRQPMYWFRQAPGKEREFVAAITWSGRGTLYADSVEGRFTISRDNAKNTVYLQMNSLRPDDTAAYYCAAGPYGDAAYRHGRIDSWGQGTQVTVSS"}, "B16": {"name": "FJ1427 P035MP02D08 (VHH)", "VHH": "B14 VHH with T23V, A49T, T50S, V51I"}, "B17": {"name": "FJ1427_P035MP02E08 (VHH)", "VHH": "B14 VHH with T23V, T50V, R104Q, L108V, A110N, T112A"}, "B18": {"name": "FJ1427_P035MP02F08 (VHH)", "VHH": "QVQLVESGGGLVQAGGSLRLSCAASGSIFSLNTMGWFRQAPGKEREFVAAISRSGGSATYGDSVKGRFTISTNNAKTTVYLQMNSLKPDDTAVYSCAASAAVGWTTRWSTIDFDSWGQGTQVTVSS"}, "B19": {"name": "FJ1427 P035MP02G08 (VHH)", "VHH": "B14 VHH with E1Q, T50S, D62H, K65R"}, "B20": {"name": "FJ1427_P035MP02H08 (VHH)", "VHH": "EVQLVESGGGLVQAGDSLRISCAASGRIFSNYAMGWFRQAPGKETEFVAGITHLTSTTHYADSVKGRFTISRDNAKNTMHLQMNNLKPEDTALYYCAADRNIKITADWSYWGQGTQVTVAS"}, "B21": {"name": "FJ1427_P035MP02B09 (VHH)", "VHH": "B13 VHH with S28T, L29F, S54T, A69T, V70I, T78M"}, "B22": {"name": "FJ1427 P035MP02D09 (VHH)", "VHH": "QVQLVESGGGLVQAGGSLRLACALSGDVFVRYTMAWFRQAPGKEREFVASVTDSGRTTDYVASVQGRFTVSRDNNKNTVYLQMNSLKPEDTAVYYCAANTDYFQIRSLDRNTWGQGTQVTVSS"}, "B23": {"name": "FJ1427_P035MP02F09 (VHH)", "VHH": "B14 VHH with T23A, V24A, T50S, E59D, R104Q, D109E, A110F"}, "B24": {"name": "FJ1427_P035MP02G09 (VHH)", "VHH": "B14 VHH with E1Q, T50L"}, "B25": {"name": "FJ1427 P035MP02H09 (VHH)", "VHH": "QLQLVESGGGLVQPGGSLRLSCAAAGRAIENYPVGWFRRAPGKEREFVAAITWISGSTLYADSVKGRFTISRDNAKNTVYLQMSSLKPEDTALYYCAAALKTITRGQNDYSYWGQGTQVTVSS"}, "B26": {"name": "FJ1427 P035MP02A10 (VHH)", "VHH": "QLQLVESGGGLVQTGTSLRLSCAASGHTSRINAMGWFRQFPGKEREFVAAISRNGGSTVYVDSVKGRFTISRDNAKSTVYLQMNSLKPEDTAVYYCTATDAVGWTTRWMTADFGFWGQGTQVTVSS"}, "B27": {"name": "FJ1427_P035MP02B10 (VHH)", "VHH": "B11 VHH with E1Q"}, "B28": {"name": "FJ1427_P035MP02C10 (VHH)", "VHH": "B22 VHH"}, "B29": {"name": "FJ1427 P035MP02D10 (VHH)", "VHH": "EVQLVESGGGLVQAGGSLRLSCAASGRTFSSDAKAWFRQAPGKEREFVAAITWAGRGTDYADSVKDRFTITRDNAKNMVYLQMSSLKPEDTAVYYCALNPTGVIGPGFRNSNRYDYWGQGTQVTVAS"}, "B30": {"name": "FJ1427_P035MP02E10 (VHH)", "VHH": "B25 VHH with L2V, P14A"}, "B31": {"name": "FJ1427_P035MP02F10 (VHH)", "VHH": "B14 VHH with T23V, T50V, R104Q, L108V, A110N, T112A"}, "B32": {"name": "FJ1427_P035MP02G10 (VHH)", "VHH": "B13 VHH with E1Q, S28T, L29F, S54T, A69T, V70I, T78M"}, "B33": {"name": "FJ1427 P035MP02H10 (VHH)", "VHH": "B14 VHH with T23A, V24A, T50S, E59D, R104Q, R106K, A110R"}, "B34": {"name": "FJ1427_P035MP02A11 (VHH)", "VHH": "B13 VHH with S28T, L29F, S54T, A69T, V70I, T78M, V121A"}}, "note": "Positions count from the first letter of the chain named."}
{"biological_target": "T1, mouse IL-2Rβ (mouse) (UniProt P16297)", "T1 sequence (looked up)": "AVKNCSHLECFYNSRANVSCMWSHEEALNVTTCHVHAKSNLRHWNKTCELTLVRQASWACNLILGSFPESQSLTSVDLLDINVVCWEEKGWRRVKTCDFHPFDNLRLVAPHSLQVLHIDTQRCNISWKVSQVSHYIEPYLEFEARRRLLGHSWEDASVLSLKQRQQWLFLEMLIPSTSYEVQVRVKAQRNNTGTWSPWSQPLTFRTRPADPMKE", "test": "P.E. ELISA, coated protein", "units": {"P.E. binding ELISA OD": "OD450 nm"}}
{"binder": "B1", "P.E. binding ELISA OD": 0.049}
{"binder": "B2", "P.E. binding ELISA OD": 0.048}
{"binder": "B3", "P.E. binding ELISA OD": 0.048}
{"binder": "B4", "P.E. binding ELISA OD": 0.048}
{"binder": "B5", "P.E. binding ELISA OD": 0.049}
{"binder": "B6", "P.E. binding ELISA OD": 0.048}
{"binder": "B7", "P.E. binding ELISA OD": 0.047}
{"binder": "B8", "P.E. binding ELISA OD": 0.047}
{"binder": "B9", "P.E. binding ELISA OD": 0.047}
{"binder": "B10", "P.E. binding ELISA OD": 0.047}
{"binder": "B11", "P.E. binding ELISA OD": 0.046}
{"binder": "B12", "P.E. binding ELISA OD": 0.046}
{"binder": "B13", "P.E. binding ELISA OD": 0.046}
{"binder": "B14", "P.E. binding ELISA OD": 0.069}
{"binder": "B15", "P.E. binding ELISA OD": 0.047}
{"binder": "B16", "P.E. binding ELISA OD": 0.048}
{"binder": "B17", "P.E. binding ELISA OD": 0.058}
{"binder": "B18", "P.E. binding ELISA OD": 0.048}
{"binder": "B19", "P.E. binding ELISA OD": 0.055}
{"binder": "B20", "P.E. binding ELISA OD": 0.049}
{"binder": "B21", "P.E. binding ELISA OD": 0.047}
{"binder": "B22", "P.E. binding ELISA OD": 0.056}
{"binder": "B23", "P.E. binding ELISA OD": 0.051}
{"binder": "B24", "P.E. binding ELISA OD": 0.066}
{"binder": "B25", "P.E. binding ELISA OD": 0.049}
{"binder": "B26", "P.E. binding ELISA OD": 0.047}
{"binder": "B27", "P.E. binding ELISA OD": 0.047}
{"binder": "B28", "P.E. binding ELISA OD": 0.05}
{"binder": "B29", "P.E. binding ELISA OD": 0.047}
{"binder": "B30", "P.E. binding ELISA OD": 0.047}
{"binder": "B31", "P.E. binding ELISA OD": 0.051}
{"binder": "B32", "P.E. binding ELISA OD": 0.048}
{"binder": "B33", "P.E. binding ELISA OD": 0.051}
{"binder": "B34", "P.E. binding ELISA OD": 0.047}
